The labels stand for the following.
B1: Co-chaperonin GroES, P0A6F9 (parent)
chain: MNIRPLHDRVIVKRKEVETKSAGGIVLTGSAAAKSTRGEVLAVGNGRILENGEVKPLDVKVGDIVIFNDGYGVKSEKIDNEEVLIMSESDILAIVEA

Variants of B1 are the subject of the series. The settings on record: Escherichia coli (strain K12); pH 7.8; 25 °C; GdnHCl; Chromatography; Tris-HCl 5 mM; KCl 200 mM; reversible: yes; structure 1AON; whole UniProt chain shown.

V95C: the “ddG of mutation (higher = less stable)” value turned out to be 0.3 kcal/mol, the denaturant m value stood at 2.2 kcal/mol/M and the unfolding free energy came out at 2 kcal/mol.

Take I3W: the “ddG of mutation (higher = less stable)” value worked out at 0.4 kcal/mol, the denaturant m value came to 2 kcal/mol/M and the unfolding free energy is 1.9 kcal/mol.

In the case of I3C, the “ddG of mutation (higher = less stable)” value amounted to 0.4 kcal/mol, the denaturant m value was determined as 2.4 kcal/mol/M and the unfolding free energy stood at 1.9 kcal/mol.

Values taken from FireProtDB (doi:10.1016/j.jmb.2004.09.082).
